Laboratory results published in patent US12539335B2, “Tricyclic polypeptide conjugated drug and use thereof” (CONJUSTAR (ZHUHAI) BIOLOGICS CO., LTD., priority 2021, dated 2026).
Where a name gives a salt, the structure may show the parent alone. Starred links: 1 amine or outer side, 2 acyl side, 3 side chain; linkers in the order of their positions; H or OH if unused. Positions of bridges follow the written chain, without caps; N, C: chain ends. Non-standard residues stand in square brackets, D forms with d. Residues, ends and D or L forms follow the SMILES beside them. Chains are numbered I, II in the order given. *: point of attachment. TATA = O=C(CC[*:1])N1CN(C(=O)CC[*:2])CN(C(=O)CC[*:3])C1; Dolaproine = CO[C@@H]([C@@H]1CCCN1)[C@@H](C)C(=O)O; Dil = CC[C@H](C)[C@H](NC)[C@@H](CC(=O)O)OC; 1Nal = N[C@@H](Cc1cccc2ccccc12)C(=O)O; X2 = O=C(CCCC(=O)[*:2])NCCC(=O)[*:1]; PABC = O=C(OCc1ccc(N[*:1])cc1)[*:2]; X1 = C[C@@H](N*)[C@@H](O)c1ccccc1; Hyp = O=C(O)[C@@H]1C[C@@H](O)CN1; hArg = N=C(N)NCCCC[C@H](N)C(=O)O; Cit = NC(=O)NCCC[C@H](N)C(=O)O; Pen = CC(C)(S)[C@H](N)C(=O)O; NMeV = CN[C@H](C(=O)O)C(C)C; Sar = CNCC(=O)O

Key:
[1] = Stability in plasma, Cynomolgus macaques; assay type: in vitro ADME; details: cynomolgus macaque, 37° C.
Description: Test Example 9: Stability Analysis of the Compounds of the Present Invention in Plasma from Different Species
To test the stability of the compounds of the present invention in plasma from SD rats, Cynomolgus macaques, and humans.
The corresponding incubation plates, including T0, T10, T30, T60, T120, and T240 incubation plates, were added with a 2 μL working solution of the compound to be tested (100 μM). Three parallel wells were prepared for each sample. Then, 98 μL of blank plasma from SD rats, Cynomolgus macaques, and humans was added to the corresponding incubation plates to which the working solution had been added. All samples were incubated in a 37° C. water bath. […] At the end of each incubation time point, the corresponding incubation plate was removed, added with stop buffer, precipitated, and centrifuged for 20 minutes. Then, 150 μL of the supernatant was analyzed by the LC-MS/MS method. The concentration of the compound to be tested in the sample was semi-quantitatively determined by the liquid chromatography-tandem mass spectrometry (LC-MS/MS) method.

[2] = Pharmacokinetic analysis in Cynomolgus macaque plasma; assay type: in vivo; details: cynomolgus monkey, Cynomolgus macaques, single IV 1 mg/kg, plasma
Description: Test Example 6: Pharmacokinetic Analysis in Cynomolgus Macaque Plasma
To test the pharmacokinetics of the compounds of the present invention in Cynomolgus macaques.
The pharmacokinetic characteristics of the compound after intravenous injection were tested according to a standard protocol in Cynomolgus macaques. The compound to be tested was formulated into a clear solution using 25 mM L-histidine (pH=7) in 10% sucrose as a vehicle. Cynomolgus macaques were given a single intravenous injection of 1 mg/kg of the compound to be tested. Whole blood was collected at time points of 0.083, 0.25, 0.5, 1, 2, 4, 8, and 24 hours after administration to get plasma. The concentration of the compound to be tested and the concentration of its potential metabolite MMAE were analyzed by the LC-MS/MS method, and the pharmacokinetic parameters were calculated by Phoenix WinNonlin software.

[3] = Metabolic stability in kidney S9, CD-1 mice; assay type: in vitro ADME; details: mouse; CD-1 mice kidney S9
Description: Test Example 8: Metabolic Stability of the Compounds of the Present Invention in Kidney S9 from Mice, Rats, Cynomolgus Macaques, and Humans
To investigate the metabolic stability of the compounds of the present invention in kidney S9 from mice, rats, Cynomolgus macaques, and humans.
Materials: Kidney S9 from CD-1 mice, SD rats, Cynomolgus macaques, and humans were purchased from BioIVT or XenoTech LLC and stored in a −80° C. refrigerator.
Experimental procedure: Eight 96-well plates, designated T0, T5, T15, T30, T45, T60, Blank, and NCF60, were prepared. The first six incubation plates corresponded to reaction time points of 0, 5, 15, 30, 45, and 60 minutes, respectively. No test sample or control compound was added to the Blank plate.
The T0, T5, T15, T30, T45, and T60 plates were added with a 2 μL working solution of the test sample (10 mM of a solution of the compound to be tested in DMSO, diluted to 100 μM with 100% acetonitrile) and 100 μL of a S9 working solution (kidney S9 protein concentration of 1.0 mg/mL), and the Blank plate was only added with the S9 working solution. The above incubation plates were then placed in a 37° C. water bath for pre-incubation for about 10 minutes.
At the end of the pre-incubation, 98 μL of an auxiliary enzyme working solution was added to each sample well except the TO plate to start the reaction. […]

With `CC[C@H](C)[C@@H]([C@@H](CC(=O)N1CCC[C@H]1[C@H](OC)[C@@H](C)C(=O)N[C@H](C)[C@@H](O)c1ccccc1)OC)N(C)C(=O)[C@@H](NC(=O)[C@H](C(C)C)N(C)C(=O)OCc1ccc(NC(=O)[C@H](CCCNC(N)=O)NC(=O)[C@@H](NC(=O)CCCC(=O)NCCC(=O)N(C)CC(=O)N(C)CC(=O)N(C)CC(=O)N(C)CC(=O)N(C)CC(=O)N(C)CC(=O)N(C)CC(=O)N(C)CC(=O)N(C)CC(=O)N(C)CC(=O)N[C@H]2CCCCNC(=O)C[C@@H](C(=O)N[C@H]3CSCCC(=O)N4CN5CN(C4)C(=O)CCSC(C)(C)[C@H](NC(=O)[C@@H](CC(=O)O)NC(=O)[C@H](Cc4cccc6ccccc46)NC(=O)[C@@H]4CCCN4C3=O)C(=O)N[C@@H](CCSC)C(=O)N[C@@H](CCCCNC(=N)N)C(=O)N[C@@H](CC(=O)O)C(=O)N[C@@H](Cc3c[nH]c4ccccc34)C(=O)N[C@@H](CO)C(=O)N[C@@H]([C@@H](C)O)C(=O)N3CCC[C@H]3C(=O)N3C[C@H](O)C[C@H]3C(=O)N[C@@H](Cc3c[nH]c4ccccc34)C(=O)N[C@H](C(N)=O)CSCCC5=O)NC(=O)CN(C)C2=O)C(C)C)cc1)C(C)C` [Acetate salt of PDC_2] (I: [Sar][Sar][Sar][Sar][Sar][Sar][Sar][Sar][Sar][Sar]K[Sar]DCP[1Nal][dD][Pen]M[hArg]DWSTP[Hyp]WC-NH2 / II: V[Cit][PABC][NMeV]V[Dil][Dolaproine]-X1; lactam I:11-I:13; linker I:14-I:18-I:28 via TATA; linker I:N-II:N via X2) the half-life at 2 μM [1] was over 9.63 h, the AUC(0-t) [2] was 1 µM·h and the C0 [2] was 3.1 µM. It also gave a clearance [2] of 3.6 mL/min/kg, a half-life [2] of 1.5 h and a Vd ([2]; read-out: Vdss) of 0.2 L/kg. It also gave a half-life at 1 μM [3] of over 2.42 h and a microsomal CLint at 1 μM [3] of under 9.6 µL/min/mg.
